# Article PMC5148593, “Using the Amino Acid Network to Modulate the Hydrolytic Activity of β-Glycosidases” (PLoS ONE, 2016)
# Substrate: O=[N+]([O-])c1ccc(O[C@@H]2O[C@H](CO)[C@@H](O)[C@H](O)[C@H]2O)cc1
# Assay: purified protein
# Format: biochemical, Spodoptera frugiperda
# Settings: 100 mM sodium citrate-sodium phosphate pH 6.0, 30°C
protein,measurement,value
"Sfβgly (Spodoptera frugiperda) (protein, kinetics: gene in pAE plasmid, E. coli NovaBlue (DE3), Ni-NTA purified (His tag kept); mature protein 21-509 (borders printed for the P. pastoris pPIC9 crystal construct, 5CG0, glycosylated at N206); monomer-dimer equilibrium) QQRRFPDDFLFGTATASYQIEGAWDEDGKGENIWDYMVHNTPEVIRDLSNGDIAADSYHNYKRDVEMMRELGLDAYRFSLSWARILPTGMANEVNPAGIAFYNNYIDEMLKYNITPLITLYHWDLPQKLQELGGFANPLISDWFEDYARVVFENFGDRVKMFITFNEPREICFEGYGSATKAPILNATAMGAYLCAKNLVTAHAKAYYLYDREFRPVQGGQCGITISVNWFGPATPTPEDEMAAELRRQGEWGIYAHPIFSAEGGFPKELSDKIAEKSAQQGYPWSRLPEFTEEEKAFVRGTSDLIGVNHYTAFLVSATERKGPYPVPSLLDDVDTGSWADDSWLKSASAWLTLAPNSIHTALTHLNNLYNKPVFYITENGWSTDESRENSLIDDDRIQYYRASMESLLNCLDDGINLKGYMAWSLMDNFEWMEGYIERFGLYEVDFSDPARTRTPRKAAFVYKHIIKHRVVDYEYEPETMVMTIDEGH",Km,2300 µM
same,kcat,0.61 s⁻¹
